From patent US20230220589A1
Each block holds one binder with its values, some of them ahead of it.

Columns and labels:
[1] = target: M44-modified A NTAA target peptides (M44-A-P2-peptide); assay: encoding assay; P2 F
[2] = target: M44-modified D NTAA target peptides; assay: encoding assay; P2 F;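 further: fraction of recording tags encoded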
[3] = target: M44-modified E NTAA target peptides; assay: encoding assay; P2 F;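 further: fraction of recording tags encoded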
[4] = target: M44-modified F NTAA target peptides (M44-F-P2-peptide); assay: encoding assay; P2 F;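 further: fraction of recording tags encoded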
[5] = target: M44-modified G NTAA target peptides (M44-G-P2-peptide); assay: encoding assay; P2 F;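 further: fraction of recording tags encoded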
[6] = target: M44-modified H NTAA target peptides; assay: encoding assay; P2 F
[7] = target: M44-modified I NTAA target peptides (M44-I-P2-peptide); assay: encoding assay; P2 F
[8] = target: M44-modified L NTAA target peptides (M44-L-P2-peptide); assay: encoding assay; P2 F;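 further: fraction of recording tags encoded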
[9] = target: M44-modified M NTAA target peptides; assay: encoding assay; P2 F
[10] = target: M44-modified N NTAA target peptides; assay: encoding assay; P2 F
[11] = target: M44-modified P NTAA target peptides; assay: encoding assay; P2 F;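 further: fraction of recording tags encoded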
[12] = target: M44-modified Q NTAA target peptides; assay: encoding assay; P2 F
[13] = target: M44-modified S NTAA target peptides; assay: encoding assay; P2 F
[14] = target: M44-modified T NTAA target peptides; assay: encoding assay; P2 F
[15] = target: M44-modified V NTAA target peptides; assay: encoding assay; P2 F;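 further: fraction of recording tags encoded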
[16] = target: M44-modified W NTAA target peptides; assay: encoding assay; P2 F;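 further: fraction of recording tags encoded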
[17] = target: M44-modified Y NTAA target peptides (M44-Y-P2-peptide); assay: encoding assay; P2 F;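 further: fraction of recording tags encoded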
[18] = target: M44-modified A NTAA target peptides (M44-A-P2-peptide); assay: encoding assay; P2 I
[19] = target: M44-modified D NTAA target peptides; assay: encoding assay; P2 I;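 further: fraction of recording tags encoded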
[20] = target: M44-modified E NTAA target peptides; assay: encoding assay; P2 I;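 further: fraction of recording tags encoded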
[21] = target: M44-modified F NTAA target peptides (M44-F-P2-peptide); assay: encoding assay; P2 I;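 further: fraction of recording tags encoded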
[22] = target: M44-modified G NTAA target peptides (M44-G-P2-peptide); assay: encoding assay; P2 I;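 further: fraction of recording tags encoded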
[23] = target: M44-modified H NTAA target peptides; assay: encoding assay; P2 I
[24] = target: M44-modified I NTAA target peptides (M44-I-P2-peptide); assay: encoding assay; P2 I
[25] = target: M44-modified L NTAA target peptides (M44-L-P2-peptide); assay: encoding assay; P2 I;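 further: fraction of recording tags encoded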
[26] = target: M44-modified M NTAA target peptides; assay: encoding assay; P2 I
[27] = target: M44-modified N NTAA target peptides; assay: encoding assay; P2 I
[28] = target: M44-modified Q NTAA target peptides; assay: encoding assay; P2 I
[29] = target: M44-modified S NTAA target peptides; assay: encoding assay; P2 I
[30] = target: M44-modified T NTAA target peptides; assay: encoding assay; P2 I
[31] = target: M44-modified V NTAA target peptides; assay: encoding assay; P2 I;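 further: fraction of recording tags encoded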
[32] = target: M44-modified W NTAA target peptides; assay: encoding assay; P2 I;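 further: fraction of recording tags encoded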
[33] = target: M44-modified Y NTAA target peptides (M44-Y-P2-peptide); assay: encoding assay; P2 I;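 further: fraction of recording tags encoded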
[34] = target: M44-modified A NTAA target peptides (M44-A-P2-peptide); assay: encoding assay; P2 P
[35] = target: M44-modified D NTAA target peptides; assay: encoding assay; P2 P;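 further: fraction of recording tags encoded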
[36] = target: M44-modified E NTAA target peptides; assay: encoding assay; P2 P;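 further: fraction of recording tags encoded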
[37] = target: M44-modified F NTAA target peptides (M44-F-P2-peptide); assay: encoding assay; P2 P;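 further: fraction of recording tags encoded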
[38] = target: M44-modified H NTAA target peptides; assay: encoding assay; P2 P
[39] = target: M44-modified I NTAA target peptides (M44-I-P2-peptide); assay: encoding assay; P2 P
[40] = target: M44-modified L NTAA target peptides (M44-L-P2-peptide); assay: encoding assay; P2 P;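 further: fraction of recording tags encoded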
[41] = target: M44-modified M NTAA target peptides; assay: encoding assay; P2 P
[42] = target: M44-modified N NTAA target peptides; assay: encoding assay; P2 P
[43] = target: M44-modified Q NTAA target peptides; assay: encoding assay; P2 P
[44] = target: M44-modified S NTAA target peptides; assay: encoding assay; P2 P
[45] = target: M44-modified Y NTAA target peptides (M44-Y-P2-peptide); assay: encoding assay; P2 P;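 further: fraction of recording tags encoded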
[46] = target: M44-modified Y NTAA target peptides (M44-Y-P2-peptide); assay: encoding assay; P2 T;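 further: fraction of recording tags encoded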
[47] = target: M44-modified A NTAA target peptides (M44-A-P2-peptide); assay: encoding assay; P2 Y
[48] = target: M44-modified D NTAA target peptides; assay: encoding assay; P2 Y;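 further: fraction of recording tags encoded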
[49] = target: M44-modified F NTAA target peptides (M44-F-P2-peptide); assay: encoding assay; P2 Y;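 further: fraction of recording tags encoded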
[50] = target: M44-modified H NTAA target peptides; assay: encoding assay; P2 Y
[51] = target: M44-modified W NTAA target peptides; assay: encoding assay; P2 Y;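 further: fraction of recording tags encoded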

encoding yield [1]: 0.01
encoding yield [2]: 0.01
encoding yield [3]: 0.01
encoding yield [4]: 0.01
encoding yield [5]: 0.02
encoding yield [6]: 0.02
encoding yield [7]: 0.07
encoding yield [8]: 0.06
encoding yield [9]: 0.05
encoding yield [10]: 0.01
encoding yield [11]: 0.01
encoding yield [12]: 0.01
encoding yield [13]: 0.01
encoding yield [14]: 0.02
encoding yield [15]: 0.01
encoding yield [16]: 0.02
encoding yield [17]: 0.02
encoding yield [18]: 0.01
encoding yield [19]: 0.01
encoding yield [20]: 0.01
encoding yield [21]: 0.01
encoding yield [22]: 0.02
encoding yield [23]: 0.01
encoding yield [24]: 0.13
encoding yield [25]: 0.06
encoding yield [26]: 0.03
encoding yield [27]: 0.01
encoding yield [28]: 0.01
encoding yield [29]: 0.02
encoding yield [30]: 0.01
encoding yield [31]: 0.03
encoding yield [32]: 0.02
encoding yield [33]: 0.03
encoding yield [34]: 0.01
encoding yield [35]: 0.01
encoding yield [36]: 0.01
encoding yield [37]: 0.09
encoding yield [38]: 0.01
encoding yield [39]: 0.01
encoding yield [40]: 0.09
encoding yield [41]: 0.04
encoding yield [42]: 0.01
encoding yield [43]: 0.01
encoding yield [44]: 0.02
encoding yield [45]: 0.02
encoding yield [46]: 0.02
encoding yield [47]: 0.01
encoding yield [48]: 0.01
encoding yield [49]: 0.02
encoding yield [50]: 0.03
encoding yield [51]: 0.01
B1: engineered M44-L binder (SEQ ID NO: 21) (designed binder, not shown: small tags and cut ends; large carriers)
chain: QVSVQPNFQQDKFLGRWFYAGHASNSSWYREKVAALSMAKLVVAPATDGGLNATETFLRKNQCETITSLLQPAGSLGSYSSRSPHGGSTWSTSVVETDYDQYALLYLQGSKGPGEDFRGAILASRTQTPRAELKEKFTAFSKAQGFTEDTIVFLPQTDKCMTEQ

encoding yield [1]: 0.31
encoding yield [2]: 0.03
encoding yield [3]: 0.04
encoding yield [4]: 0.03
encoding yield [5]: 0.1
encoding yield [6]: 0.04
encoding yield [7]: 0.07
encoding yield [8]: 0.05
encoding yield [9]: 0.09
encoding yield [10]: 0.03
encoding yield [11]: 0.02
encoding yield [12]: 0.03
encoding yield [13]: 0.18
encoding yield [14]: 0.25
encoding yield [15]: 0.13
encoding yield [16]: 0.03
encoding yield [17]: 0.05
encoding yield [18]: 0.2
encoding yield [19]: 0.03
encoding yield [20]: 0.03
encoding yield [21]: 0.02
encoding yield [22]: 0.1
encoding yield [23]: 0.04
encoding yield [24]: 0.08
encoding yield [25]: 0.03
encoding yield [26]: 0.01
encoding yield [27]: 0.03
encoding yield [28]: 0.03
encoding yield [29]: 0.1
encoding yield [30]: 0.12
encoding yield [31]: 0.11
encoding yield [32]: 0.02
encoding yield [33]: 0.1
encoding yield [34]: 0.03
encoding yield [35]: 0.04
encoding yield [36]: 0.03
encoding yield [37]: 0.04
encoding yield [38]: 0.04
encoding yield [39]: 0.03
encoding yield [40]: 0.04
encoding yield [41]: 0.02
encoding yield [42]: 0.02
encoding yield [43]: 0.03
encoding yield [44]: 0.05
encoding yield [45]: 0.02
encoding yield [46]: 0.05
encoding yield [47]: 0.29
encoding yield [48]: 0.04
encoding yield [49]: 0.04
encoding yield [50]: 0.07
encoding yield [51]: 0.05
B2: engineered M44-A binder (SEQ ID NO: 42) (designed binder, not shown: small tags and cut ends; large carriers)
chain: QVSVQPNFQQDKFLGRWFVAGLASNSSWDREKVAALSGAKMVVAPATDGGLNVTRTMLRKNQCETYTGLLQPAGSLGSYSWRSPHPGSTGSESVVETDYDQYALVYGQGSKGPGEDLRAAALWSRTQTPRAELKEKFTAFSKAQGFTEDTIVFLPQTDKCMTEQ

encoding yield [1]: 0.05
encoding yield [2]: 0.03
encoding yield [3]: 0.03
encoding yield [4]: 0.09
encoding yield [5]: 0.04
encoding yield [6]: 0.04
encoding yield [7]: 0.08
encoding yield [8]: 0.13
encoding yield [9]: 0.1
encoding yield [10]: 0.05
encoding yield [11]: 0.02
encoding yield [12]: 0.02
encoding yield [13]: 0.04
encoding yield [14]: 0.04
encoding yield [15]: 0.03
encoding yield [16]: 0.09
encoding yield [17]: 0.12
encoding yield [18]: 0.03
encoding yield [19]: 0.03
encoding yield [20]: 0.03
encoding yield [21]: 0.05
encoding yield [22]: 0.02
encoding yield [23]: 0.03
encoding yield [24]: 0.14
encoding yield [25]: 0.15
encoding yield [26]: 0.03
encoding yield [27]: 0.05
encoding yield [28]: 0.01
encoding yield [29]: 0.03
encoding yield [30]: 0.04
encoding yield [31]: 0.06
encoding yield [32]: 0.05
encoding yield [33]: 0.07
encoding yield [34]: 0.03
encoding yield [35]: 0.02
encoding yield [36]: 0.02
encoding yield [37]: 0.08
encoding yield [38]: 0.03
encoding yield [39]: 0.06
encoding yield [40]: 0.07
encoding yield [41]: 0.02
encoding yield [42]: 0.02
encoding yield [43]: 0.02
encoding yield [44]: 0.04
encoding yield [45]: 0.03
encoding yield [46]: 0.07
encoding yield [47]: 0.05
encoding yield [48]: 0.05
encoding yield [49]: 0.13
encoding yield [50]: 0.09
encoding yield [51]: 0.15
B3: engineered M44-L binder (SEQ ID NO: 31) (designed binder, not shown: small tags and cut ends; large carriers)
chain: QDSTQNLIPAPPLISVPLQPGFWTERFQGRWFLVGFAGNAVQKERQSRLTMQSLILELQEDNSYNITAINVRGQGCRYIISTLVPSSRPGQFTLGNIHSYPQIQSLDVQVADTDYDQFAMVFLQGTSENKQYFEVALAGRTKGLSDELKERFVSFAKSLGLKDNNIVFSVPTDQCIDN
